Reference: IntAct's records for PubMed 31515488

B1: Methylmalonyl-CoA epimerase, mitochondrial (Homo sapiens), Q96PE7 (parent)
chain: MARVLKAAAANAVGLFSRLQAPIPTVRASSTSQPLDQVTGSVWNLGRLNHVAIAVPDLEKAAAFYKNILGAQVSEAVPLPEHGVSVVFVNLGNTKMELLHPLGRDSPIAGFLQKNKAGGMHHICIEVDNINAAVMDLKKKKIRSLSEEVKIGAHGKPVIFLHPKDCGGVLVELEQA
B2: Scaffold protein ILK (Homo sapiens), Q13418 (parent)
chain: MDDIFTQCREGNAVAVRLWLDNTENDLNQGDDHGFSPLHWACREGRSAVVEMLIMRGARINVMNRGDDTPLHLAASHGHRDIVQKLLQYKADINAVNEHGNVPLHYACFWGQDQVAEDLVANGALVSICNKYGEMPVDKAKAPLRELLRERAEKMGQNLNRIPYKDTFWKGTTRTRPRNGTLNKHSGIDFKQLNFLTKLNENHSGELWKGRWQGNDIVVKVLKVRDWSTRKSRDFNEECPRLRIFSHPNVLPVLGACQSPPAPHPTLITHWMPYGSLYNVLHEGTNFVVDQSQAVKFALDMARGMAFLHTLEPLIPRHALNSRSVMIDEDMTARISMADVKFSFQCPGRMYAPAWVAPEALQKKPEDTNRRSADMWSFAVLLWELVTREVPFADLSNMEIGMKVALEGLRPTIPPGISPHVCKLMKICMNEDPAKRPKFDMIVPILEKMQDK
partner: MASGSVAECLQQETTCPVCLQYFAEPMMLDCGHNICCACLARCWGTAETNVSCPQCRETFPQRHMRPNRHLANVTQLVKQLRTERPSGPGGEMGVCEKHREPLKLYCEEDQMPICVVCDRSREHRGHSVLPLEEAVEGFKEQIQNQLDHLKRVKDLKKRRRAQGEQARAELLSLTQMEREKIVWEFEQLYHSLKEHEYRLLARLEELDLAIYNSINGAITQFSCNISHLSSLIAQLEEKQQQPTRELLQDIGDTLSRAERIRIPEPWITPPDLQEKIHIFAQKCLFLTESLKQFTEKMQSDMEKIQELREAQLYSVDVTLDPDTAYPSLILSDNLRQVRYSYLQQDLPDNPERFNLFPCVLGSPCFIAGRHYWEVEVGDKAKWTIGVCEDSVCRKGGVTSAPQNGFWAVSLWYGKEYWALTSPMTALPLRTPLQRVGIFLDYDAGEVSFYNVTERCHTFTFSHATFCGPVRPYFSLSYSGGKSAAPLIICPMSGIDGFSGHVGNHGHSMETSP
B3: Isoform 1 of Cell division control protein 45 homolog (Homo sapiens), O75419-1 (parent)
chain: MFVSDFRKEFYEVVQSQRVLLFVASDVDALCACKILQALFQCDHVQYTLVPVSGWQELETAFLEHKEQFHYFILINCGANVDLLDILQPDEDTIFFVCDTHRPVNVVNVYNDTQIKLLIKQDDDLEVPAYEDIFRDEEEDEEHSGNDSDGSEPSEKRTRLEEEIVEQTMRRRQRREWEARRRDILFDYEQYEYHGTSSAMVMFELAWMLSKDLNDMLWWAIVGLTDQWVQDKITQMKYVTDVGVLQRHVSRHNHRNEDEENTLSVDCTRISFEYDLRLVLYQHWSLHDSLCNTSYTAARFKLWSVHGQKRLQEFLADMGLPLKQVKQKFQAMDISLKENLREMIEESANKFGMKDMRVQTFSIHFGFKHKFLASDVVFATMSLMESPEKDGSGTDHFIQALDSLSRSNLDKLYHGLELAKKQLRATQQTIASCLCTNLVISQGPFLYCSLMEGTPDVMLFSRPASLSLLSKHLLKSFVCSTKNRRCKLLPLVMAAPLSMEHGTVTVVGIPPETDSSDRKNFFGRAFEKAAESTSSRMLHNHFDLSVIELKAEDRSKFLDALISLLS
partner: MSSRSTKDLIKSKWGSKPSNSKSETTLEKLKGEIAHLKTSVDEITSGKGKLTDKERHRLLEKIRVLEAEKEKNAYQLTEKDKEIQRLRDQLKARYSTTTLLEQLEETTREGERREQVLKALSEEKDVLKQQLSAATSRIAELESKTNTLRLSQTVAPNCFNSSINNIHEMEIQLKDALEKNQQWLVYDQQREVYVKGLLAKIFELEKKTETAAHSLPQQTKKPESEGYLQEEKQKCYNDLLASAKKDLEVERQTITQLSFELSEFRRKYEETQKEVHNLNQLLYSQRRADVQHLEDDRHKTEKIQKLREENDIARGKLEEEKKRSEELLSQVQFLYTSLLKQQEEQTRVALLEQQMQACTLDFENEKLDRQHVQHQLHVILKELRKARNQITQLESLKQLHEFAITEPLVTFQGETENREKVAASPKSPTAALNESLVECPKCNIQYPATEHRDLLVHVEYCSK
B4: Syntenin-2 (Homo sapiens), Q9H190 (parent)
chain: MSSLYPSLEDLKVDQAIQAQVRASPKMPALPVQATAISPPPVLYPNLAELENYMGLSLSSQEVQESLLQIPEGDSTAVSGPGPGQMVAPVTGYSLGVRRAEIKPGVREIHLCKDERGKTGLRLRKVDQGLFVQLVQANTPASLVGLRFGDQLLQIDGRDCAGWSSHKAHQVVKKASGDKIVVVVRDRPFQRTVTMHKDSMGHVGFVIKKGKIVSLVKGSSAARNGLLTNHYVCEVDGQNVIGLKDKKIMEILATAGNVVTLTIIPSVIYEHMVKKLPPVLLHHTMDHSIPDA
partner: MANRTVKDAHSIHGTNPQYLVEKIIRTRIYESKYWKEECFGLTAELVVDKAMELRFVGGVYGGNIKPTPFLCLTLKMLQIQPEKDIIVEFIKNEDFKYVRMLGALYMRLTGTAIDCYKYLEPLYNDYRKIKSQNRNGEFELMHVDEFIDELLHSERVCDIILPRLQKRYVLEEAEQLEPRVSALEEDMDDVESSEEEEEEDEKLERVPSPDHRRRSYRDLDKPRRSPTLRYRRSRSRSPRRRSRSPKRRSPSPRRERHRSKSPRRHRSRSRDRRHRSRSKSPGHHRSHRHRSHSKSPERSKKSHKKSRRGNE
B5: Tyrosine-protein phosphatase non-receptor type 9 (Homo sapiens), P43378 (parent)
chain: MEPATAPRPDMAPELTPEEEQATKQFLEEINKWTVQYNVSPLSWNVAVKFLMARKFDVLRAIELFHSYRETRRKEGIVKLKPHEEPLRSEILSGKFTILNVRDPTGASIALFTARLHHPHKSVQHVVLQALFYLLDRAVDSFETQRNGLVFIYDMCGSNYANFELDLGKKVLNLLKGAFPARLKKVLIVGAPIWFRVPYSIISLLLKDKVRERIQILKTSEVTQHLPRECLPENLGGYVKIDLATWNFQFLPQVNGHPDPFDEIILFSLPPALDWDSVHVPGPHAMTIQELVDYVNARQKQGIYEEYEDIRRENPVGTFHCSMSPGNLEKNRYGDVPCLDQTRVKLTKRSGHTQTDYINASFMDGYKQKNAYIGTQGPLENTYRDFWLMVWEQKVLVIVMTTRFEEGGRRKCGQYWPLEKDSRIRFGFLTVTNLGVENMNHYKKTTLEIHNTEERQKRQVTHFQFLSWPDYGVPSSAASLIDFLRVVRNQQSLAVSNMGARSKGQCPEPPIVVHCSAGIGRTGTFCSLDICLAQLEELGTLNVFQTVSRMRTQRAFSIQTPEQYYFCYKAILEFAEKEGMVSSGQNLLAVESQ
B6: U3 small nucleolar RNA-associated protein 14 homolog A (Homo sapiens), Q9BVJ6 (parent)
chain: MTANRLAESLLALSQQEELADLPKDYLLSESEDEGDNDGERKHQKLLEAISSLDGKNRRKLAERSEASLKVSEFNVSSEGSGEKLVLADLLEPVKTSSSLATVKKQLSRVKSKKTVELPLNKEEIERIHREVAFNKTAQVLSKWDPVVLKNRQAEQLVFPLEKEEPAIAPIEHVLSGWKARTPLEQEIFNLLHKNKQPVTDPLLTPVEKASLRAMSLEEAKMRRAELQRARALQSYYEAKARREKKIKSKKYHKVVKKGKAKKALKEFEQLRKVNPAAALEELEKIEKARMMERMSLKHQNSGKWAKSKAIMAKYDLEARQAMQEQLSKNKELTQKLQVASESEEEEGGTEDVEELLVPDVVNEVQMNADGPNPWMLRSCTSDTKEAATQEDPEQLPELEAHGVSESEGEERPVAEEEILLREFEERRSLRKRSELSQDAEPAGSQETKDSGSQEVLSELRVLSQKLKENHQSRKQKASSEGTIPQVQREEPAPEEEEPLLLQRPERVQTLEELEELGKEECFQNKELPRPVLEGQQSERTPNNRPDAPKEKKKKEQMIDLQNLLTTQSPSVKSLAVPTIEELEDEEERNHRQMIKEAFAGDDVIRDFLKEKREAVEASKPKDVDLTLPGWGEWGGVGLKPSAKKRRRFLIKAPEGPPRKDKNLPNVIINEKRNIHAAAHQVRVLPYPFTHHWQFERTIQTPIGSTWNTQRAFQKLTTPKVVTKPGHIINPIKAEDVGYRSSSRSDLSVIQRNPKRITTRHKKQLKKCSVD

Variants of: B1
Conditions: with atrap_human AGTRAP
Target sequence in this assay (Q6RW13 whole entry): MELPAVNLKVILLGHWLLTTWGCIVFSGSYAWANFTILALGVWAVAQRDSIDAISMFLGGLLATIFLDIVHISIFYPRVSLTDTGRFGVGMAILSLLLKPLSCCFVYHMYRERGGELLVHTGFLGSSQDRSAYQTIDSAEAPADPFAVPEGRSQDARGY

effect of a mutation on the interaction | Variant
with no effect | A76V
with no effect | R143H

Variants of: B2
Conditions: with tri27_human TRIM27, P14373

effect of a mutation on the interaction | Variant
with no effect | V340G

Variants of: B3
Conditions: with cep55_human CEP55, Q53EZ4

effect of a mutation on the interaction | Variant
with no effect | G150E

Variants of: B4
Conditions: with pr38a_human PRPF38A

effect of a mutation on the interaction | Variant
disrupting interaction strength | G225R
disrupting interaction strength | G242R
with no effect | V182M

Variants of: B5
Conditions: with mal2_human MAL2, Q969L2
Chain of mal2_human MAL2, Q969L2 (Q969L2 whole entry): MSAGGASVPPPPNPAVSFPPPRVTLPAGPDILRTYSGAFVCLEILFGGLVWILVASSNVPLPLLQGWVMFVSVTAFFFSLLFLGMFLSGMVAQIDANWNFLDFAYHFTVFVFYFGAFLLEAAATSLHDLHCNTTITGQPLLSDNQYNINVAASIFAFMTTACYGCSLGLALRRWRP

effect of a mutation on the interaction | Variant
disrupting interaction strength | R72Q

Variants of: B5
Conditions: with rtn3_human RTN3, O95197
Chain of rtn3_human RTN3, O95197 (O95197 whole entry): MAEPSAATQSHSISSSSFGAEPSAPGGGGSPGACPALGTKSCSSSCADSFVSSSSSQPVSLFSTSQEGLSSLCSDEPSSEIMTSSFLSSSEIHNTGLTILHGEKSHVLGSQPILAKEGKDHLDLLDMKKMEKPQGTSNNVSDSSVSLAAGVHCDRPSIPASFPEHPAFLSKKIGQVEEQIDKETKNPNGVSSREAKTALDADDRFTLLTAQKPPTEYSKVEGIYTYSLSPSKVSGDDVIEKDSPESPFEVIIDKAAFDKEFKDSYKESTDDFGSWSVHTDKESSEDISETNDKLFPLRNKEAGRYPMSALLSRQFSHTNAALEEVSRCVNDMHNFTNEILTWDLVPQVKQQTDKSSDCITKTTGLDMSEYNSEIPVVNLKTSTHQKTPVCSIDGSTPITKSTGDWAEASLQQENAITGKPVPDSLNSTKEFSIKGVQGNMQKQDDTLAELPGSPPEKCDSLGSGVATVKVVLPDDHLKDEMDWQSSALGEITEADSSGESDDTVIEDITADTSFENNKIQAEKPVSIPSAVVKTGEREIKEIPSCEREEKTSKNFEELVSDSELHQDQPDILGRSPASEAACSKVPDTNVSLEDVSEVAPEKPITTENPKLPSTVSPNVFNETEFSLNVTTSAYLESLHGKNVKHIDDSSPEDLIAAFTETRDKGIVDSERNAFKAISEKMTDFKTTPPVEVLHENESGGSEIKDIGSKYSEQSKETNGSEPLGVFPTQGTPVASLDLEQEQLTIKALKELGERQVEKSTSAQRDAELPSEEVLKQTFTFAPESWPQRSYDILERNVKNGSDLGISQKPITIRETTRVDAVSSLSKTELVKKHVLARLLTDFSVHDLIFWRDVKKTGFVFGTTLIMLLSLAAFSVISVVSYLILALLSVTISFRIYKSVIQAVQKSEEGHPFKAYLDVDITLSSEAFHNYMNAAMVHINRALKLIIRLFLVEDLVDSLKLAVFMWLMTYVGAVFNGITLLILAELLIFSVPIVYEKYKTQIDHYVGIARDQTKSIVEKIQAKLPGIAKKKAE

effect of a mutation on the interaction | Variant
with no effect | R72Q

Variants of: B5
Conditions: with atrap_human AGTRAP
Target sequence in this assay (Q6RW13 whole entry): as the sequence (Q6RW13 whole entry) above

effect of a mutation on the interaction | Variant
with no effect | R72Q

Variants of: B6
Conditions: with ldoc1_human LDOC1, O95751
Chain of ldoc1_human LDOC1, O95751 (O95751 whole entry): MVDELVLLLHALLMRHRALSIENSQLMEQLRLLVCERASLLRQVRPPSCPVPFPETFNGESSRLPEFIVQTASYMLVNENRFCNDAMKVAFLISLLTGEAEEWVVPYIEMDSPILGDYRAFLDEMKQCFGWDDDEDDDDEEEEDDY

effect of a mutation on the interaction | Variant
with no effect | V487A
with no effect | T579A

Variants of: B6
Conditions: with cep70_human CEP70, Q8NHQ1
Chain of cep70_human CEP70, Q8NHQ1 (Q8NHQ1 whole entry): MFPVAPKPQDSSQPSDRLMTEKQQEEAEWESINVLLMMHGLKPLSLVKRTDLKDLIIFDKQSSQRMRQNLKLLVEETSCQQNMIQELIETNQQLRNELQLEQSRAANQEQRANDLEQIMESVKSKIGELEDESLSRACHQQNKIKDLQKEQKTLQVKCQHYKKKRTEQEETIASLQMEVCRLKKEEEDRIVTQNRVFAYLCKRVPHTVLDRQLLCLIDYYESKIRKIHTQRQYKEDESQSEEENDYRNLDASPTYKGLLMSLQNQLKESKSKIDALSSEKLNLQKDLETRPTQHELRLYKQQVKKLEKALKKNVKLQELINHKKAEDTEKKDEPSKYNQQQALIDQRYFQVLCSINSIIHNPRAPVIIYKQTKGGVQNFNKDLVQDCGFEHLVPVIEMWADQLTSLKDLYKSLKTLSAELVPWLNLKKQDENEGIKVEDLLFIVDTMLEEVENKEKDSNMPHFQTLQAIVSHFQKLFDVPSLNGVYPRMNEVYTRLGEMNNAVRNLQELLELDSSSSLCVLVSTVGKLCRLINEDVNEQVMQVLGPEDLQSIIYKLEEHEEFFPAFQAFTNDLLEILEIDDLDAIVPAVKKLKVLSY

effect of a mutation on the interaction | Variant
with no effect | V256M
